These results are taken from US20110135643A1 (BETH ISRAEL DEACONESS MEDICAL CENTER, published 2011).

This assay addresses T1, human HLA-A2.1 (HLA-A*0201) class I molecule on the surface of T2 cells (human).
T1 construct: whole, on cells; The b2m chain is added because surface class I carries it
The assay can be described thus: MHC stabilization and dissociation assay on T2 cells, BB7.2 staining, flow cytometry.
Procedure: Briefly, T2 cells were cultured for 6 hours in serum-free IMDM (ATCC) prior to the addition of candidate peptides at a concentration of 50 μg/250×10³ cells/ml and incubated overnight at 37° C. […] Cells were then washed three times with PBS and analyzed by flow cytometry. […] The relative binding affinity of a given peptide was calculated as MFI_{(peptide)}/MFI_{(negative peptide)}.
T2 cells were incubated overnight with 50 μg/ml of each candidate peptide at 37° C. in serum-free Iscove's Modified Dulbecco's Medium (IMDM). Cells were then incubated with Brefeldin A (Sigma, St. Louis, Mo.) at 10 μg/ml for 1 hour, washed, and incubated at 37° C. for 0, 2, 4 or 6 hours in the presence of Brefeldin A (50 ng/ml). Cells were then stained with BB7.2 mAb. For each time point, peptide-induced HLA-A2.1 expression was calculated as the difference of the mean fluorescence of peptide-loaded T2 cells and mean fluorescence of negative peptide-loaded T2 cells. The rate of dissociation is reflected by the loss of A2.1 expression over time.
For SLDLKLIFL (9-mer peptide of SIM2) [SIM2(237)], the binding result was “binds”.
FLDSRVTEV (9-mer peptide of SIM2) [SIM2(244)]: the binding result is “binds”.
Next, YQIVGLVAV (9-mer peptide of SIM2) [SIM2(205)]: “binds”; TLDGFVFVV (9-mer peptide of SIM2) [SIM2(87)]: “binds”.
Take KLIFLDSRV (9-mer peptide of SIM2) [SIM2(241)]: the binding result is on record as “binds”.
